Measurements from PMC9452783, “PLK1-mediated phosphorylation of PPIL2 regulates HR via CtIP” (Frontiers in Cell and Developmental Biology, 2022).

T1: GST-ZNF830 (E. coli, purified) (UniProt Q96NB3 1-372)
T1 construct: ZNF830, full length, GST-tagged (pGEX6T-1); also called GST-tagged ZNF830; source: E. coli BL21, purified (glutathione-Sepharose 4B)
T1 sequence (looked up): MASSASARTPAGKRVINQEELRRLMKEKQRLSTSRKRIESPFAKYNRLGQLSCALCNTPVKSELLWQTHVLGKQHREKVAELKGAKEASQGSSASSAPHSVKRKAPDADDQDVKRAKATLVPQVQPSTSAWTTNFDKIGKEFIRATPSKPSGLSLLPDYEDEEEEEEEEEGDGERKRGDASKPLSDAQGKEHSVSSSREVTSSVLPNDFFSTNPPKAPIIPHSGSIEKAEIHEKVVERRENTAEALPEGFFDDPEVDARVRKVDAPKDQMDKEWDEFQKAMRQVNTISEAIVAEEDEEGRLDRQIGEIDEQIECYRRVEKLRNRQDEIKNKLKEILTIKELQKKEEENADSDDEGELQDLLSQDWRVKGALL

B1: GST-ZNF830 151-372 (E. coli, purified) (domain or fragment, UniProt Q96NB3 151-372, looked up)
chain: SGLSLLPDYEDEEEEEEEEEGDGERKRGDASKPLSDAQGKEHSVSSSREVTSSVLPNDFFSTNPPKAPIIPHSGSIEKAEIHEKVVERRENTAEALPEGFFDDPEVDARVRKVDAPKDQMDKEWDEFQKAMRQVNTISEAIVAEEDEEGRLDRQIGEIDEQIECYRRVEKLRNRQDEIKNKLKEILTIKELQKKEEENADSDDEGELQDLLSQDWRVKGALL
notes: source: E. coli BL21, purified (glutathione-Sepharose 4B)
B2: His-PPIL2 241-520 (E. coli, purified) (domain or fragment, UniProt Q13356 241-520, looked up)
chain: YSTGKVSASFTSTAMVPETTHEAAAIDEDVLRYQFVKKKGYVRLHTNKGDLNLELHCDLTPKTCENFIRLCKKHYYDGTIFHRSIRNFVIQGGDPTGTGTGGESYWGKPFKDEFRPNLSHTGRGILSMANSGPNSNRSQFFITFRSCAYLDKKHTIFGRVVGGFDVLTAMENVESDPKTDRPKEEIRIDATTVFVDPYEEADAQIAQERKTQLKVAPETKVKSSQPQAGSQGPQTFRQGVGKYINPAATKRAAEEEPSTSATVPMSKKKPSRGFGDFSSW
notes: source: E. coli BL21, purified (Ni-NTA)

Experiments:
[1] = target: B2; test: pull-down; GST pull-down with purified GST-ZNF830 (full length or fragments) and His-PPIL2 (full length or fragments) expressed in E. coli; western blot and Coomassie brilliant blue; conditions: both partners purified
[2] = target: T1, GST-ZNF830 (E. coli, purified); test: as above; conditions: both partners purified

Row | binding result [1] | binding result [2] | Binder
1 | binds |  | B1
2 |  | binds | B2
